Measured values from patent publication US12497460B2, “Anti-MSR1 antibodies and methods of use thereof” (REGENERON PHARMACEUTICALS, INC., priority 2018, dated 2025).

B1: H2aM21229N: one of "Twelve anti-MSR1 antibodies"; "an “H2aM” antibody has a mouse IgG2a Fc" (antibody, V domains shown)
VH: EVQLVESGGGLVKPGGSLRLSCAASGFTFSRYSMNWVRQAPGKGLEWVSSISSSSSYIYYGDTVKGRFTISRDNAKKSLYLQMNSLRAEDTAVYYCVRDRGQLVLYFDYWGQGTLVTVSS
VL: DIQMTQSPASLSTSIRDRVTITCRASLSISSFLNWFQQRPGKAPKLLIYVASNLQSGVPSRFSDSGSGTDFTLTISSLQPEDFATYYCQQNYSTPPITFGQGTRLEIK
B2: H2aM25695N: one of "Twelve anti-MSR1 antibodies"; "an “H2aM” antibody has a mouse IgG2a Fc" (antibody, V domains shown)
VH: QVQLQESGPGLVKPSETLSLTCTVTGGSISRNYWSWIRQPPGKGLEWIGYIYYSGSINYNPSLKSRVTISVDMSKNQFSLKLNSVTAADTAVYYCARDRWNWKYGMDVWGQGTTVIVSS
VL: EIVLTQSPGTLSLSPGERATLSCRASQTVRNSYLAWYHQKPGQAPRLLIYGASSRATGIPDRFSGSGSGTDFTLTISRLEPEDFAVYYCQQYGSSYWTFGQGTKMEIKR

Key:
[1] = system: HMM-mfMSR1 (monkey MSR1 extracellular domain); assay: OCTET bio-layer interferometry binding kinetics of anti-MSR1 mAbs; conditions: 25° C., analyte HMM-mfMSR1, NB = no binding observed
Protocol: (§1) Binding affinities and kinetic constants of human anti-MSR1 antibodies for different MSR1 reagents were determined using a real time, label-free bio-layer interferometry assay on an OCTET® HTX biosensor platform (Pall FortéBio Corp., Menlo Park, CA). The experiment was performed at 25° C. in 10 mM HEPES, 150 mM NaCl, 3 mM EDTA, 0.05% v/v Surfactant Tween-20, and 1 mg/mL BSA, pH7.4 (HBS-EBT) buffer with the plate shaking at the speed of 1000 rpm. Binding studies were performed on human MSR1 extracellular domain expressed with a N-terminal nonahistidine tag (His9-hMSR1; R&D Systems, Cat #2708-MS), monkey MSR1 extracellular domain expressed with a N-terminal myc-myc-hexahistidine tag (HMM-mfMSR1; SEQ ID NO: 418), and mouse MSR1 extracellular domain expressed with a N-terminal nonahistidine tag (His9-mMSR1; R&D Systems, Cat #1797-MS). The anti-MSR1 monoclonal antibodies were captured by dipping either anti-human Fc (AHC) or anti-mouse Fc (AMC) Octet biosensors in wells containing 5 μg/mL or 10 μg/mL of anti-MSR1 monoclonal antibody for 45-90 seconds. The AHC captured anti-MSR1 monoclonal antibodies were then dipped in wells containing 50 nM of His9-mMSR1, while the AMC captured anti-MSR1 monoclonal antibodies were dipped in wells containing different concentrations of His9-hMSR1 or HMM-mfMSR1 (100 nM, 25 nM) or 100 nM His9-mMSR1. The binding of different MSR1 reagents to the captured anti-MSR1 monoclonal antibody was measured for 4 minutes and the dissociation of monoclonal antibody bound MSR1 reagent was monitored for 8-10 minutes in HBS-EBT buffer.
(§2) The association rate (ka) and dissociation rate (kd) were determined by fitting the real-time binding sensorgrams to a 1:1 binding model with mass transport limitation using Scrubber 2.0c curve-fitting software. Binding dissociation equilibrium constant (KD) and dissociative half-life (t½) were calculated from the kinetic rates as: […]
(§3) Binding kinetics parameters for His9-hMSR1, HMM-mfMSR1 or His9-mMSR1 binding to different anti-MSR1 monoclonal antibodies of the invention at 25° C. are shown in Tables 8 and 9.

[2] = target: T1, His9-hMSR1 (human MSR1 extracellular domain) (Homo sapiens, UniProt P21757); assay: as above; conditions: 25° C., analyte His9-hMSR1, NB = no binding observed
T1 construct: human MSR1 extracellular domain expressed with a N-terminal nonahistidine tag; His9 (nonahistidine) (N); purchased R&D Systems 2708-MS
T1 sequence (P21757 77-451 limits assumed): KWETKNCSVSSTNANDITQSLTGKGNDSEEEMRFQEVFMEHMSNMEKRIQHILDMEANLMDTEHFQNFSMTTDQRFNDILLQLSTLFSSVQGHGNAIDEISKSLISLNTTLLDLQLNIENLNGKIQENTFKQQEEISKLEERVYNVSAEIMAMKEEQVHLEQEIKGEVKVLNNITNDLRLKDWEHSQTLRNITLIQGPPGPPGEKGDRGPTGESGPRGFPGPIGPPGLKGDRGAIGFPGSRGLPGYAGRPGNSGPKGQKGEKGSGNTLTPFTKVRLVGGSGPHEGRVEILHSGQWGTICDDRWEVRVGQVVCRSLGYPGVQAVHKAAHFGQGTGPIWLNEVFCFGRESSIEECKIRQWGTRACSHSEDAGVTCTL
Protocol: as §1, §2, §3

[3] = target: T2, PMA-treated THP-1 cells (endogenously expressed human MSR1) (Homo sapiens, UniProt P21757); assay: Electrochemiluminescence antibody binding assay on MSR1-expressing cells; assay type: cell-based
T2 construct: endogenous in cells; host or cells: THP-1 cells differentiated with PMA
T2 sequence (P21757 1-451): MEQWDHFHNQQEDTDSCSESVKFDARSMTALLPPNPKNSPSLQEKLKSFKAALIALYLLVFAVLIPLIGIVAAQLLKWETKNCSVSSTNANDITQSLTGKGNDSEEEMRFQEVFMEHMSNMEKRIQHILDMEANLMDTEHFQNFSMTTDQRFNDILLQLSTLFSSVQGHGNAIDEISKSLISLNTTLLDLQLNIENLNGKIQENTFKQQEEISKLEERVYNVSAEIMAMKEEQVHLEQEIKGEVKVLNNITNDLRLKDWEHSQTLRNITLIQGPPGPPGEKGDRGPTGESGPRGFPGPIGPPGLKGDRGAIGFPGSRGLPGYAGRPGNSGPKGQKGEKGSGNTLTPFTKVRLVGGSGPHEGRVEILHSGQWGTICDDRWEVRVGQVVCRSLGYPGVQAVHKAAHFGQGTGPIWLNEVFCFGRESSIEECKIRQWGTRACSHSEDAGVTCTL

[4] = system: parental HEK293 cells; assay: Electrochemiluminescence antibody binding assay, non-specific binding control cells; assay type: cell-based, human
[5] = target: T3, MSR1-mediated Dil-AcLDL uptake in HEK293.Myc.hMSR1 cells (Homo sapiens, UniProt P21757); assay: Ligand uptake assay, Dil-AcLDL; assay type: cell-based; conditions: 10 μg/mL Dil-AcLDL
T3 construct: expressed in transfected cells; host or cells: HEK293 (lentiviral transduction, hygromycin selection)
T3 sequence (P21757 1-451): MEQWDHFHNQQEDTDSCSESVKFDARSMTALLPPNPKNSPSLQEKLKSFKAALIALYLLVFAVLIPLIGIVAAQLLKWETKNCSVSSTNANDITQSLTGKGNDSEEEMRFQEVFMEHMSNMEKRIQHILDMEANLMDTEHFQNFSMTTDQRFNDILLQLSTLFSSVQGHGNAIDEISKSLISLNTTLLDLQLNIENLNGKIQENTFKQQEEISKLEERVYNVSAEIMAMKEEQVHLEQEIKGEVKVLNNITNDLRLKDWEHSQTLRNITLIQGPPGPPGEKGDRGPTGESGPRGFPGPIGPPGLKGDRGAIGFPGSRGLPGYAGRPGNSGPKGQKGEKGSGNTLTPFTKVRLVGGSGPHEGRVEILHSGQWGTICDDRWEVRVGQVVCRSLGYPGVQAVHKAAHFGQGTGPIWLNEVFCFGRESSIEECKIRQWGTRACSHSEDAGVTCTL
Protocol: A bioassay was generated to assess the ability of the exemplary anti-MSR1 antibodies to regulate the uptake of certain MSR1 ligands.
Generation of MSR1-expressing cell lines for assay. […] The resulting cell line, referred to here as “HEK293.Myc.hMSR1”, was selected and maintained in DMEM containing 10% FIBS, NEAA, penicillin/streptomycin, L-glutamine, and 100 μg/mL hygromycin.
Ligand uptake assay. […] After 30 minutes, either oxidized or acetylated low-density lipoprotein (LDL) labeled with 1,1′dioctadecyl-3,3,3′,3′-tetramethylindocarbocyanine perchlorate (referred to as “Dil-OxLDL” or “Dil-AcLDL,” respectively) was added to the cells at a constant concentration of 10 μg/mL. […] Results were analyzed using nonlinear regression (4-parameter logistics) with the Prism 7 program to obtain EC50 and IC50 values. The percentage of inhibition was calculated with the Relative Fluorescent Unit (RFU) values by using the following equation: […]
In the equation, “RFUBaseline” is the fluorescence value from the cells treated with 10 μg/mL ligand without antibodies, “RFUInhibition” is the minimum fluorescence value with for a particular antibody with 10 μg/mL ligand, and “RFUBackground” is the fluorescence value from cells without any ligand or antibodies.

HMM-mfMSR1 (monkey MSR1 extracellular domain), sequence (as listed by the source): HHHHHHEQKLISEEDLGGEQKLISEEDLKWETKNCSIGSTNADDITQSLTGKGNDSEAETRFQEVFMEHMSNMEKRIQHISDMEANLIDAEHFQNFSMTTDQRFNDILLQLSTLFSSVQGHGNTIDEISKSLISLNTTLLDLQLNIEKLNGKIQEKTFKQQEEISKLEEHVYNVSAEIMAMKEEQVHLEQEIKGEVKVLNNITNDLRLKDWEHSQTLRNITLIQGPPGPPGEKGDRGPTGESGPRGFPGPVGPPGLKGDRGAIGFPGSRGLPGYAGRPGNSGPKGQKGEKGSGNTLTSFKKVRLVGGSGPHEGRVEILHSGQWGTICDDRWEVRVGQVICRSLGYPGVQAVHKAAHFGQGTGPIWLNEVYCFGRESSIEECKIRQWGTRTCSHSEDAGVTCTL

Molecule | ka [1] [M⁻¹ s⁻¹] | kd [1] [s⁻¹] | ka [2] [M⁻¹ s⁻¹] | kd [2] [s⁻¹] | Ratio of 11 nM Antibody Binding Signal (RLU) to isotype control, PMA-treated THP-1 [3] | Ratio of 11 nM Antibody Binding Signal (RLU) to isotype control, HEK293 [4] | Dil-Acetylated LDL IC50 [5] | maximum inhibition of Dil-AcLDL uptake [5] | Dil-Acetylated LDL % Inhibition ([5]; maximum inhibition)
B1 | 135000 | 0.00222 | 300000 | 0.00021 | 56 | 36 | no inhibition | no inhibition | no inhibition
B2 | 312000 | 0.000571 | 360000 | 0.000527 | 8 | 5 | – | – | –
